This is an account of results in IntAct's records for PubMed 21620138.

For the assay, the target named is hif1a_human HIF1A (UniProt Q16665).
hif1a_human HIF1A, sequence (Q16665 whole entry, looked up): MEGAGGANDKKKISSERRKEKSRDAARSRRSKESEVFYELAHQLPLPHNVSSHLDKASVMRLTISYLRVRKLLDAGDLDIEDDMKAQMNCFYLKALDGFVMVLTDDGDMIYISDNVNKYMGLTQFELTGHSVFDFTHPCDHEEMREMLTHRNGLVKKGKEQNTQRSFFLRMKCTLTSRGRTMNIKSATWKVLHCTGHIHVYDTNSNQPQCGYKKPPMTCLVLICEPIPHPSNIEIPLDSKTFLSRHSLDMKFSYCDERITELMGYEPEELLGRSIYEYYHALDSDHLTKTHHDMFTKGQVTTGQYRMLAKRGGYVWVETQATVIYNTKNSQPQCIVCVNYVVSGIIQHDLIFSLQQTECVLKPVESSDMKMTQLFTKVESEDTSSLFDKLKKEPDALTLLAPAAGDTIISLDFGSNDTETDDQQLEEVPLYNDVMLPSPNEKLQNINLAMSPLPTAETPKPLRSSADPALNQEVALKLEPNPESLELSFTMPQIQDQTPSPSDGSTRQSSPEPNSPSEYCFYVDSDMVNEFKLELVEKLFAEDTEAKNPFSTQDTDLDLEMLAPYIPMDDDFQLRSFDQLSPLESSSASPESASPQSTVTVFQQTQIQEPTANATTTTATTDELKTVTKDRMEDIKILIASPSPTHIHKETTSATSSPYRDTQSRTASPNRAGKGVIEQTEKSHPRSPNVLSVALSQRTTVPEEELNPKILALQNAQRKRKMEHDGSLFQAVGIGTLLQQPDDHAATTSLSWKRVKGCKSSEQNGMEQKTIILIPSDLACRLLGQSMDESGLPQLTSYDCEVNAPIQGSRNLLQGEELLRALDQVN

Pyruvate kinase PKM (Homo sapiens), P14618-1 P403A;P408A, sequence (P14618 whole entry P403A/P408A): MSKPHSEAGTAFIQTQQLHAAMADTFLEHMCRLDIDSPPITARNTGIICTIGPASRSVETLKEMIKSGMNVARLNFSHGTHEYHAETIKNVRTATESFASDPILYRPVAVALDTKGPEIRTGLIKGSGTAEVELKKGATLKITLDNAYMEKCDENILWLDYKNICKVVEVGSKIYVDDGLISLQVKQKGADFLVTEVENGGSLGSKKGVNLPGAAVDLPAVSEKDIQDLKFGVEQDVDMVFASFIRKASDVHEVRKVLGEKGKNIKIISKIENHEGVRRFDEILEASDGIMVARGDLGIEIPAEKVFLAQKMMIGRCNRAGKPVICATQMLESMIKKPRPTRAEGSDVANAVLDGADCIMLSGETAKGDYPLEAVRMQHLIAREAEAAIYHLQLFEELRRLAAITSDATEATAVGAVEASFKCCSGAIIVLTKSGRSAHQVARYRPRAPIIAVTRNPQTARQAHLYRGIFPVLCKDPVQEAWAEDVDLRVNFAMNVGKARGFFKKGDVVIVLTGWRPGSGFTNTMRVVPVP

With “Pyruvate kinase PKM (Homo sapiens), P14618-1 P403A;P408A”, the “effect of a mutation on the interaction” value is “decreasing interaction strength”.
